Experimental findings from patent US20130280763A1 (IMBA INSTITUT FUR MOLEKULARE BIOTECHNOLOGIE, published 2013) are described below.

Positions count from the first letter of the chain named.

The labels stand for the following.
T1: ASW (human, UniProt Q9BVC5 1-232, limits assumed)
T1 construct: Endogenous protein that co-purifies from cell extract
T1 sequence (looked up): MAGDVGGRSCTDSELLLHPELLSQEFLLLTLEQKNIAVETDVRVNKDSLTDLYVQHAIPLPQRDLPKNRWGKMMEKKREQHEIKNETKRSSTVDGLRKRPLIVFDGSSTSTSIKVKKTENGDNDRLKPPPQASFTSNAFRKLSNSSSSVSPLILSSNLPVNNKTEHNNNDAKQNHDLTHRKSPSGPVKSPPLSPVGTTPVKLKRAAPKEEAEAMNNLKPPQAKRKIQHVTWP

T2: DDX1 (human, UniProt Q92499 1-740)
T2 construct: Endogenous protein that co-purifies from cell extract
T2 sequence (looked up): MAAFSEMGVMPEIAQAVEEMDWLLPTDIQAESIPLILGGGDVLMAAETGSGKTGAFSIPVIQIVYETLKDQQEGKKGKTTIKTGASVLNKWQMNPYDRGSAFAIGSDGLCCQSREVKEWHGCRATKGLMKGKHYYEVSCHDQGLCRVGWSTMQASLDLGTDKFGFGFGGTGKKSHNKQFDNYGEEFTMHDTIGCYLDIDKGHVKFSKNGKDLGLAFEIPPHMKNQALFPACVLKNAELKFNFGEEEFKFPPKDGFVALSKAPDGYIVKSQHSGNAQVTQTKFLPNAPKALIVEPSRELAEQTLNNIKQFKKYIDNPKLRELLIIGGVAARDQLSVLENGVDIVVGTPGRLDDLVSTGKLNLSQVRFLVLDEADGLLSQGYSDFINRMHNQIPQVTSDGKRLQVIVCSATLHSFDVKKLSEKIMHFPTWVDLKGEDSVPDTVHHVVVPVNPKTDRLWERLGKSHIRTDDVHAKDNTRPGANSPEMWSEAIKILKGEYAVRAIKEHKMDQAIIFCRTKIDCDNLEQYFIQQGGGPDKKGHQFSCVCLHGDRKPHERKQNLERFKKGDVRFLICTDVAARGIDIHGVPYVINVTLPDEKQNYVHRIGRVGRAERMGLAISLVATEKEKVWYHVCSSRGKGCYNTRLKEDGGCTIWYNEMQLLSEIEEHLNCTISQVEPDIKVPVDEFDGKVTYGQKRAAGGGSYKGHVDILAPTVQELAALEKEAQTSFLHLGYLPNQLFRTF

T3: HSPC117, Q9Y3I0
T3 chain: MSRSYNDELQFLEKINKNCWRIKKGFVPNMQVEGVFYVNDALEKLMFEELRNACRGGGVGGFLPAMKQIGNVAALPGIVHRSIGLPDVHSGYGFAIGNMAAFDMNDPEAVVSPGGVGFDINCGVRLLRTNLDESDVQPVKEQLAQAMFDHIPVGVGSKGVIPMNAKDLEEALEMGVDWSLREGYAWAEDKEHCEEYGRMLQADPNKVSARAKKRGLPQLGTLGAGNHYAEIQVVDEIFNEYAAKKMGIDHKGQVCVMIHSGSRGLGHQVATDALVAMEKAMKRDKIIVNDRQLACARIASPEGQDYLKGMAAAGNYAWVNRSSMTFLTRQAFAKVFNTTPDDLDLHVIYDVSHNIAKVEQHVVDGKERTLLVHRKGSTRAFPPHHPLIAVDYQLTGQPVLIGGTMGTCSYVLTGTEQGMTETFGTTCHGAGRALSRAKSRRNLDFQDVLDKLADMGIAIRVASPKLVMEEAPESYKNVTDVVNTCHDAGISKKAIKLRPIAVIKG

T4: recombinant wild-type Archease
T4 chain: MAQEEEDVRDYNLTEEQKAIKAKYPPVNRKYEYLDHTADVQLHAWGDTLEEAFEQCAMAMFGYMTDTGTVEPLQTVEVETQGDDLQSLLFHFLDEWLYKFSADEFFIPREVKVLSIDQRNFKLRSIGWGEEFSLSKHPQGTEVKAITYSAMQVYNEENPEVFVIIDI

T5: recombinant Archease D39A
T5 chain: T4 chain with D39A

T6: recombinant Archease K144A
T6 chain: T4 chain with K144A

B1: FLAG-tagged Archease (other)
chain: T4 chain
notes: also called FLAG-Archease; not shown: FLAG tag
B2: FLAG-DDX1 (protein)
chain: T2 sequence (looked up)
B3: CGI-99 (other, human, UniProt Q9Y224 1-244, looked up)
chain: MFRRKLTALDYHNPAGFNCKDETEFRNFIVWLEDQKIRHYKIEDRGNLRNIHSSDWPKFFEKYLRDVNCPFKIQDRQEAIDWLLGLAVRLEYGDNAEKYKDLVPDNSKTADNATKNAEPLINLDVNNPDFKAGVMALANLLQIQRHDDYLVMLKAIRILVQERLTQDAVAKANQTKEGLPVALDKHILGFDTGDAVLNEAAQILRLLHIEELRELQTKINEAIVAVQAIIADPKTDHRLGKVGR
notes: Endogenous protein that co-purifies from cell extract
B4: Archease (other)
chain: AQEEEDVRDYNLTEEQKAIKAKYPPVNRKYEYLDHTADVQLHAWGDTLEEAFEQCAMAMFGYMTDTGTVEPLQTVEVETQGDDLQSLLFHFLDEWLYKFSADEFFIPREVKVLSIDQRNFKLRSIGWGEEFSLSKHPQGTEVKAITYSAMQVYNEENPEVFVIIDI
notes: Endogenous untagged Archease in the cells from which FLAG-HSPC117 was purified
B5: FLAG-tagged HSPC117 (enzyme, human, UniProt Q9Y3I0 1-505, looked up)
chain: T3 chain
notes: also called FLAG-HSPC117; FLAG-RTCB; not shown: FLAG tag

The target in one data set is T1, ASW. In words: FLAG affinity purification at 150 mM NaCl, Coomassie stained gel (FIG. 4A). As to the method:
(§1) A) Coomassie Blue stained preparations of FLAG-tagged Archease and HSPC117 affinity purified at 150 mM NaCl. B) RNA ligase activity assay of FLAG-HSPC117 and FLAG-Archease using pre-cleaved tRNA substrates. Extracts of HEK 293 cells were used as a negative control. * Indicates unspecific products.
(§2) Stable cell lines expressing a FLAG-tagged version of Archease and HSPC117 were generated to perform immuno-precipitations. Fluted FLAG-Archease was assayed for tRNA ligation in parallel with FLAG-HSPC117, which contains the entire tRNA ligase complex. […] RNA ligase activity was only detectable in reactions containing affinity-purified RNA ligase complex but not FLAG-tagged Archease (FIG. 4B).

For the data set “CGI-99”, the target named is B3. The data set is described as above. The protocol:
as §1, §2

Data set [1] concerns the target T2, DDX1. The description is as above. As to the method:
as §1, §2

In a further data set the target is T3, HSPC117, Q9Y3I0.
Data set [2] addresses B5. Description: FLAG affinity purification, co-purifying proteins on a gel (FIG. 1A).
Data set [3] has as its target B5. Description: FLAG affinity purification at 150 mM NaCl, Coomassie stained gel (FIG. 4A). The protocol: as §1, §2
The target of data set [4] is T4, recombinant wild-type Archease.
For data set [5], the target named is T5, recombinant Archease D39A.
The target of data set [6] is T6, recombinant Archease K144A.
The target in data set [7] is T2, DDX1. Description: FLAG affinity purification, co-purifying proteins on a gel (FIG. 1A).

Take B1: the binding result with ASW, with CGI-99 and with DDX1 [1] was “no binding” throughout.

With B2, in the data set with HSPC117, Q9Y3I0, the “Xbp1 ligation assay using FLAG-IPs” value was “ligation activity in FLAG-HSPC117 and FLAG-DDX1 IPs were observed”.

Consider B3, for which the binding result with FLAG-tagged HSPC117 [2] is given as “binds”.

For B4, the binding result with FLAG-tagged HSPC117 [3] is “no binding”.

In the case of B5, the “ligation activity of affinity purified human tRNA ligase complex (pre-cleaved tRNA substrates, linear intron)” value in data set [4] is on record as “addition of recombinant Archease boosts ligation activity to a great extent (including circularization of the intron)”. Besides, the “ligation of Xbp1 RNA minimal substrates” value in data set [4], in data set [5] and in data set [6] was “Addition of recombinant wild-type Archease but not its mutagenized versions strongly stimulated ligation of Xbp1 RNA minimal substrates” throughout. Moreover, the binding result with DDX1 [7] is reported as “binds”.
